Data: patent publication US4770993A, “Hybridoma tumor cell lines and their monoclonal antibodies to thaumatin” (Beatrice Companies, Inc., priority 1985, dated 1988)

Experiments:
[1] = tested on: monoclonal antibody of clone No. 29; test: Competition assay between native plant thaumatin I and monellin, clone No. 29 antibody; type: binding, mouse
[2] = tested on: clone No. 3 monoclonal antibodies; test: Competition ELISA, inhibition of binding of clone No. 3 monoclonal antibodies to native plant thaumatin I; parameters: species or system mouse
Description: (§1) The following procedure is utilized to carry out enzyme linked immunosorbance assays (ELISA) for thaumatin. All reactions are carried out at room temperature and the ELISA plate is covered with Saran brand plastic wrap at all stages and is incubated within a humidified chamber. ELISA plates are coated by placing 10 ng of thaumatin I purified according to the procedure of example 1 in 50 μl of 25 mM NaHCO3 (pH 9.2). This is incubated at room temperature for 2 hours. The plates are washed twice with 400 μl of PBS (50 mM potassium phosphate, 150 mM NaCl, (pH 7.4) and Tween 20 (0.05%)) (a detergent manufactured by Sigma Chemical Co.) and then twice with 400 μl water. The plates are then coated with 200 μl of 1% bovine serum albumin (BSA) in PBS-Tween 20 (0.025% solution) for 2 hours at room temperature. The plates are again washed twice with 400 μl of the PBS-Tween solution and twice with water.
(§2) Fifty μl of media from the culture to be tested is then added. Normal, unfused myeloma cell (Sp2-0/Ag-14) media is used as the negative control. Mouse serum at a dilution of 1:500 or greater is used as a positive control. The media is then incubated for at least four hours at room temperature. The plates are then again washed twice with 400 μl of PBS-Tween 20 solution and then twice with water. Fifty μl of a 1:100 dilution of rabbit anti-mouse light K and λ chain immunoglobulin is added and this is incubated for 2 hours at room temperature. The plates are again washed twice with 400 μl of 0.5% PBS-Tween 20 solution and twice with water. Fifty μl of conjugated goat anti-rabbit IgG peroxidase at a 1:1000 dilution is then added and incubated for 1 hour at room temperature. The plates are once more washed twice with 400 μl PBS-Tween 20 solution and twice with water.
(§3) Fifty μl of O-phenylenediamine dihydrochloride (OPD) solution containing 0.01% of H2 O2 is added to each well (OPD solution comprises 18 mg of OPD per 30 ml of staining buffer which itself comprises 4.86 ml of 0.5 M citric acid and 10.28 ml of 0.5 M Na2 HPO4 diluted up to 100 ml with water). The H2 O2 should be added to the OPD only seconds before application. This mixture is then incubated for 5-15 minutes at room temperature until the reaction is stopped by addition of 50 μl of 4N H2 SO4. The optical density of the wells is then measured at 490 nm by a Bio-Tek ELISA reader.
(§4) In this example, the inhibition effect of recombinant yeast produced thaumatin analogue-glutathione adduct and of performic acid oxidized plant thaumatin on binding of clone No. 3 monoclonal antibodies to native plant thaumatin I was evaluated. ELISA plates were coated with 10 ng of native plant thaumatin I per well. The antibodies were preincubated with control buffer or with various amounts of test materials for 2 hours and were added to the plates. The plates were then developed according to the ELISA procedure of Example 3.

[3] = tested on: clone No. 29 monoclonal antibodies; test: Competition ELISA, inhibition of binding of clone No. 29 monoclonal antibodies to native plant thaumatin I; parameters: species or system mouse
Description: as §1
as §2, with “Mouse serum at a dilution of 1:500 or greater is used as a positive control.” left out
as §3
as §4, with “this example” for “this example, the”, “oxidized” for “oxidized plant”, “No. 29” for “No. 3”

[4] = cited from earlier work; for taste responses: in words
[5] = in words; cited from earlier work

Monellin
Inhibition (%) ([1]; amount of protein 10 ng): not detectable
Inhibition (%) ([1]; amount of protein 50 ng): not detectable
Inhibition (%) ([1]; amount of protein 100 ng): not detectable
Inhibition (%) ([1]; amount of protein 1 μg): 15%
Inhibition (%) ([1]; amount of protein 10 μg): 60%
Inhibition (%) ([1]; amount of protein 100 μg): 98%
concentration inhibiting binding relative to thaumatin ([1]; monellin versus thaumatin): ten fold greater

B1: Thaumatin I: plant thaumatin I (obtained from Sigma Chemical Co.), sweet-tasting protein of Thaumatococcus daniellii, purified on an ion exchange column (protein, UniProt P02883 23-229, looked up)
Thaumatin I: ATFEIVNRCSYTVWAAASKGDAALDAGGRQLNSGESWTINVEPGTNGGKIWARTDCYFDDSGSGICKTGDCGGLLRCKRFGRPPTTLAEFSLNQYGKDYIDISNIKGFNVPMDFSPTTRGCRGVRCAADIVGQCPAKLKAPGGGCNDACTVFQTSEYCCTTGKCGPTEYSRFFKRLCPDAFSYVLDKPTTVTCPGSSNYRVTFCPTA
Inhibition of Binding (%) ([2]; addition 100 ng): 16%
Inhibition of Binding (%) ([2]; addition 200 ng): 30%
Inhibition of Binding (%) ([2]; addition 500 ng): 50%
Inhibition of Binding (%) ([2]; addition 1 μg): 60%
Inhibition of Binding (%) ([2]; addition 2 μg): 80%
Inhibition of Binding (%) ([3]; addition 100 ng): 5%
Inhibition of Binding (%) ([3]; addition 200 ng): 30%
Inhibition of Binding (%) ([3]; addition 500 ng): 51%
Inhibition of Binding (%) ([3]; addition 1 μg): 65%
Inhibition of Binding (%) ([3]; addition 2 μg): 80%
Inhibition (%) ([1]; amount of protein 10 ng): not detectable
Inhibition (%) ([1]; amount of protein 50 ng): not detectable
Inhibition (%) ([1]; amount of protein 100 ng): 25%
Inhibition (%) ([1]; amount of protein 1 μg): 62.5%
Inhibition (%) ([1]; amount of protein 10 μg): 94%
Inhibition (%) ([1]; amount of protein 100 μg): 95%
taste responses [4]: elicit profound taste responses
sweetness relative to sucrose ([4]; on a weight basis): about 5000 times sweeter than sucrose
cariogenicity [5]: non-cariogenic
toxicity [5]: non-toxic

B2: Performic acid oxidized thaumatin: denatured thaumatin I prepared by incubation of thaumatin I in a chilled performic acid solution (protein, UniProt P02883 23-229, looked up)
Thaumatin I: ATFEIVNRCSYTVWAAASKGDAALDAGGRQLNSGESWTINVEPGTNGGKIWARTDCYFDDSGSGICKTGDCGGLLRCKRFGRPPTTLAEFSLNQYGKDYIDISNIKGFNVPMDFSPTTRGCRGVRCAADIVGQCPAKLKAPGGGCNDACTVFQTSEYCCTTGKCGPTEYSRFFKRLCPDAFSYVLDKPTTVTCPGSSNYRVTFCPTA
modifications: performic acid oxidized
notes: denatured thaumatin I prepared by incubation of thaumatin I in a chilled performic acid solution
Inhibition of Binding (%) ([2]; addition 100 ng): 0%
Inhibition of Binding (%) ([2]; addition 200 ng): 0%
Inhibition of Binding (%) ([2]; addition 500 ng): 0%
Inhibition of Binding (%) ([2]; addition 1 μg): 0%
Inhibition of Binding (%) ([2]; addition 2 μg): 6%
inhibition in the assay ([2]; preincubation with clone No. 3 antibody, in words): little or no inhibition
Inhibition of Binding (%) ([3]; addition 100 ng): 8%
Inhibition of Binding (%) ([3]; addition 200 ng): 29.5%
Inhibition of Binding (%) ([3]; addition 500 ng): 49%
Inhibition of Binding (%) ([3]; addition 1 μg): 64%
Inhibition of Binding (%) ([3]; addition 2 μg): 82%
competition with native plant thaumatin I for clone No. 29 antibody ([3]; in words): compete effectively

B3: Thaumatin II: plant thaumatin II, sweet-tasting protein of Thaumatococcus daniellii (protein, UniProt P02884 23-229, looked up)
Thaumatin II: ATFEIVNRCSYTVWAAASKGDAALDAGGRQLNSGESWTINVEPGTKGGKIWARTDCYFDDSGRGICRTGDCGGLLQCKRFGRPPTTLAEFSLNQYGKDYIDISNIKGFNVPMDFSPTTRGCRGVRCAADIVGQCPAKLKAPGGGCNDACTVFQTSEYCCTTGKCGPTEYSRFFKRLCPDAFSYVLDKPTTVTCPGSSNYRVTFCPTA
taste responses [4]: elicit profound taste responses
cariogenicity [5]: non-cariogenic
toxicity [5]: non-toxic
